Values belong to the binder of their own block, whether it stands above or below them.
Target: T1, human IL-10 receptor (hIL-10R alpha and beta chains) on HEK-Blue IL-10 reporter cells (human, UniProt Q13651 22-578; Q08334 20-325)
T1 sequence 1: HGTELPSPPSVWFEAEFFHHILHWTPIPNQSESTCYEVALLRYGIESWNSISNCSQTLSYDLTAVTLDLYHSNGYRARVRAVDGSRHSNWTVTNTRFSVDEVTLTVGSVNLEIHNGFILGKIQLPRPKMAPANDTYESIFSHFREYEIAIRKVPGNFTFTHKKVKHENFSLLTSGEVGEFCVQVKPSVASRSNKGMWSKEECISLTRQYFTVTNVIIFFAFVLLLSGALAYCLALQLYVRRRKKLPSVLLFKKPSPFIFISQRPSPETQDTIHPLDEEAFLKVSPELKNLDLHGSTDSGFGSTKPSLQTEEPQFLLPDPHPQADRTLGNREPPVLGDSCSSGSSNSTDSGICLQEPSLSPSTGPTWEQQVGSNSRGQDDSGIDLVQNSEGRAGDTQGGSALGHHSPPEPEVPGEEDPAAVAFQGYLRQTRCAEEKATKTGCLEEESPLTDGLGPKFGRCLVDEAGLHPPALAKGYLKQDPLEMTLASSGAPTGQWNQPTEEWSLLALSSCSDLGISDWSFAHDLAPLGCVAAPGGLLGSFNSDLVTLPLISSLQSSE
T1 sequence 2: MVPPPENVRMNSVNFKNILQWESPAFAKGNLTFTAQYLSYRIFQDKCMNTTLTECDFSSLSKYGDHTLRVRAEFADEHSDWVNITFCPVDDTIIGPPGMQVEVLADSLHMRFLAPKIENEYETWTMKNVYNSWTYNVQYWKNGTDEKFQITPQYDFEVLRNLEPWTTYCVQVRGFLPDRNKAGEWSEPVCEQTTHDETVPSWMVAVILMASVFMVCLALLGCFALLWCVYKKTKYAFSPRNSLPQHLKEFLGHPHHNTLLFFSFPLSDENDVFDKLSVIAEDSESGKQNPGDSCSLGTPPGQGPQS
Assay: cell-based or functional assay

B2: IL10R binding molecule of SEQ ID NO: 285 (bispecific antibody)
chain: QVQLQESGGGSVQAGGSLRLSCTVSGYTYSSNCMGWFRQAPGKEREGVATIYTGGGNTYYADSVKGRFTISQDNAKNTVYLQMNNLKPEDTAMYYCAAEPLSRVYGGSCPTPTFDYWGQGTQVTVSSGGGSQVQLQESGGGSVQAGGSLRLSCAASGYTYSSYCMGWFRQAPGKEREGVAHIDSDGSTSYADSVKGRFTISKDNAKNTLYLQMNSLKPEDTAMYYCAADPIPGPGYCDGGPNKYWGQGTQVTVSSASHHHHHH
Abs 630 (25 nM): 0.48 Abs 630
Abs 630 (100 nM): 0.39 Abs 630

B4: IL10R binding molecule of SEQ ID NO: 283 (bispecific antibody)
chain: QVQLQESGGGSVQAGGSLRLSCAVSGYAYSTYCMGWFRQAPGKEREGVAAIDSGGSTSYADSVKGRFTISKDNAKNTLYLRMNSLKPEDTAMYYCAAVPPPPDGGSCLFLGPEIKVSKADFRYWGQGTQVTVSSGGGSQVQLQESGGGSVQTGGSLRLSCAASGYTYLRGCMGWFRQAPGKEREGVAVMDVVGDRRSYIDSVKGRFTISRDNAANSVYLQMDNLKPEDTAMYYCTAGPNCVGWRSGLDYWGQGTQVTVSSASHHHHHH
Abs 630 (25 nM): 0.48 Abs 630
Abs 630 (100 nM): 0.39 Abs 630

B5: IL10R binding molecule of SEQ ID NO: 289 (bispecific antibody)
chain: QVQLQESGGGSVQAGGSLRLSCTVSGYTYSSNCMGWFRQAPGKEREGVATIYTGGGNTYYADSVKGRFTISQDNAKNTVYLQMNNLKPEDTAMYYCAAEPLSRVYGGSCPTPTFDYWGQGTQVTVSSGGGSQVQLQESGGGSVQAGGSLRLSCAASGYSYSSYCMGWFRQAPGKEREGVATIDSDGMTRYADSVKGRFTISKDNAKNTLYLQMNSLKPEDTAMYYCAAPLYDCDSGAVGRNPPYWGQGTQVTVSSASHHHHHH
Abs 630 (25 nM): 0.48 Abs 630
Abs 630 (100 nM): 0.39 Abs 630

B7: IL10R binding molecule of SEQ ID NO: 286 (bispecific antibody)
chain: QVQLQESGGGSVQAGGSLRLSCTVSGYTYSSNCMGWFRQAPGKEREGVATIYTGGGNTYYADSVKGRFTISQDNAKNTVYLQMNNLKPEDTAMYYCAAEPLSRVYGGSCPTPTFDYWGQGTQVTVSSGGGSQVQLQESGGGSVQAGGSLRLSCAASRYTYNSYCMGWFRQAPGKEREGVATIDSDGMTRYADSVKGRFTISKDNAKNTLYLQMNSLKPEDTAMYYCAADADCTIAAMTTNPLGQGTQVTVSSASHHHHHH
Abs 630 (25 nM): 0.46 Abs 630
Abs 630 (100 nM): 0.39 Abs 630

B11: IL10R binding molecule of SEQ ID NO: 287 (bispecific antibody)
chain: QVQLQESGGGSVQAGGSLRLSCTVSGYTYSSNCMGWFRQAPGKEREGVATIYTGGGNTYYADSVKGRFTISQDNAKNTVYLQMNNLKPEDTAMYYCAAEPLSRVYGGSCPTPTFDYWGQGTQVTVSSGGGSQVQLQESGGGSVQAGGSLRLSCTVSRYTASVNYMGWFRQAPGKEREGVATIFTGAGTTYYANSVKGRFTISRDNAKNTAYLQMNSLKPEDTAIYYCAVDFRGGLLYRPAYEYTYRGQGTQVTVSSASHHHHHH
Abs 630 (25 nM): 0.9 Abs 630
Abs 630 (100 nM): 0.51 Abs 630

B12: IL10R binding molecule of SEQ ID NO: 284 (bispecific antibody)
chain: QVQLQESGGGSVQAGGSLRLSCTVSGYTYSSNCMGWFRQAPGKEREGVATIYTGGGNTYYADSVKGRFTISQDNAKNTVYLQMNNLKPEDTAMYYCAAEPLSRVYGGSCPTPTFDYWGQGTQVTVSSGGGSQVQLQESGGGSVQAGGSLRLSCAASGYTYSSGCMGWFRQAPGKEREAVAAINSDGSTSYADSVKGRFTISKDNAKNTLYLQMNSLKPEDTAMYYCAAEPYCSGGYPRWSVAEFGYWGQGTQVTVSSASHHHHHH
Abs 630 (25 nM): 0.45 Abs 630
Abs 630 (100 nM): 0.34 Abs 630

B14: IL10R binding molecule of SEQ ID NO: 258 (bispecific antibody)
chain: QVQLQESGGGSVQAGGSLRLSCAASRYLYSIDYMAWFRQSPGKEREPVAVIYTASGATFYPDSVKGRFTISQDNAKMTVYLQMNSLKSEDTAMYYCAAVRKTDSYLFDAQSFTYWGQGTQVTVSSGGGSQVQLQESGGGSVQAGGSLRLSCAASRYTYNSYCMGWFRQAPGKEREGVATIDSDGMTRYADSVKGRFTISKDNAKNTLYLQMNSLKPEDTAMYYCAADADCTIAAMTTNPLGQGTQVTVSSASHHHHHH
Abs 630 (25 nM): 0.49 Abs 630
Abs 630 (100 nM): 0.38 Abs 630

B16: IL10R binding molecule of SEQ ID NO: 288 (bispecific antibody)
chain: QVQLQESGGGSVQAGGSLRLSCTVSGYTYSSNCMGWFRQAPGKEREGVATIYTGGGNTYYADSVKGRFTISQDNAKNTVYLQMNNLKPEDTAMYYCAAEPLSRVYGGSCPTPTFDYWGQGTQVTVSSGGGSQVQLQESGGGSVEAGGSLRLSCAASGYTHSSYCMGWFRQAPGKEREGVAAIDVDGSTTYADSVKGRFTISKDNAKNTLYLQMNSLKPEDTGMYYCAAEFADCSSNYFLPPGAVRYWGQGTQVTVSSASHHHHHH
Abs 630 (25 nM): 0.5 Abs 630
Abs 630 (100 nM): 0.44 Abs 630

Further lines, results first:

Abs 630 (25 nM): 0.54 Abs 630
Abs 630 (100 nM): 0.38 Abs 630
B1: IL10R binding molecule of SEQ ID NO: 296 (bispecific antibody)
chain: QVQLQESGGGSVQAGGSLRLSCGASGYTYSSYCMGWFRQVPGKEREGVAVIDSDGSTSYADSVKGRFTISKDNGKNTLYLQMNSLKPEDTAMYYCAADLGHYRPPCGVLYLGMDYWGKGTQVTVSSGGGSQVQLQESGGGSVQAGGSLRLSCAASGYSYSSYCMGWFRQAPGKEREGVATIDSDGMTRYADSVKGRFTISKDNAKNTLYLQMNSLKPEDTAMYYCAAPLYDCDSGAVGRNPPYWGQGTQVTVSSASHHHHHH

Abs 630 (25 nM): 0.49 Abs 630
Abs 630 (100 nM): 0.37 Abs 630
B3: IL10R binding molecule of SEQ ID NO: 290 (bispecific antibody)
chain: QVQLQESGGGSVQAGGSLRLSCTVSGYTYSSNCMGWFRQAPGKEREGVATIYTGGGNTYYADSVKGRFTISQDNAKNTVYLQMNNLKPEDTAMYYCAAEPLSRVYGGSCPTPTFDYWGQGTQVTVSSGGGSQVQLQESGGGSVQTGGSLRLSCAASGYTYLRGCMGWFRQAPGKEREGVAVMDVVGDRRSYIDSVKGRFTISRDNAANSVYLQMDNLKPEDTAMYYCTAGPNCVGWRSGLDYWGQGTQVTVSSASHHHHHH

Abs 630 (25 nM): 0.78 Abs 630
Abs 630 (100 nM): 0.47 Abs 630
B6: IL10R binding molecule of SEQ ID NO: 292 (bispecific antibody)
chain: QVQLQESGGGSVQAGGSLRLSCGASGYTYSSYCMGWFRQVPGKEREGVAVIDSDGSTSYADSVKGRFTISKDNGKNTLYLQMNSLKPEDTAMYYCAADLGHYRPPCGVLYLGMDYWGKGTQVTVSSGGGSQVQLQESGGGSVQAGGSLRLSCAASGYTYSSYCMGWFRQAPGKEREGVAHIDSDGSTSYADSVKGRFTISKDNAKNTLYLQMNSLKPEDTAMYYCAADPIPGPGYCDGGPNKYWGQGTQVTVSSASHHHHHH

Abs 630 (25 nM): 0.54 Abs 630
Abs 630 (100 nM): 0.43 Abs 630
B8: IL10R binding molecule of SEQ ID NO: 293 (bispecific antibody)
chain: QVQLQESGGGSVQAGGSLRLSCGASGYTYSSYCMGWFRQVPGKEREGVAVIDSDGSTSYADSVKGRFTISKDNGKNTLYLQMNSLKPEDTAMYYCAADLGHYRPPCGVLYLGMDYWGKGTQVTVSSGGGSQVQLQESGGGSVQAGGSLRLSCAASRYTYNSYCMGWFRQAPGKEREGVATIDSDGMTRYADSVKGRFTISKDNAKNTLYLQMNSLKPEDTAMYYCAADADCTIAAMTTNPLGQGTQVTVSSASHHHHHH

Abs 630 (25 nM): 0.46 Abs 630
Abs 630 (100 nM): 0.36 Abs 630
B9: IL10R binding molecule of SEQ ID NO: 297 (bispecific antibody)
chain: QVQLQESGGGSVQAGGSLRLSCGASGYTYSSYCMGWFRQVPGKEREGVAVIDSDGSTSYADSVKGRFTISKDNGKNTLYLQMNSLKPEDTAMYYCAADLGHYRPPCGVLYLGMDYWGKGTQVTVSSGGGSQVQLQESGGGSVQTGGSLRLSCAASGYTYLRGCMGWFRQAPGKEREGVAVMDVVGDRRSYIDSVKGRFTISRDNAANSVYLQMDNLKPEDTAMYYCTAGPNCVGWRSGLDYWGQGTQVTVSSASHHHHHH

Abs 630 (25 nM): 0.49 Abs 630
Abs 630 (100 nM): 0.39 Abs 630
B10: IL10R binding molecule of SEQ ID NO: 294 (bispecific antibody)
chain: QVQLQESGGGSVQAGGSLRLSCGASGYTYSSYCMGWFRQVPGKEREGVAVIDSDGSTSYADSVKGRFTISKDNGKNTLYLQMNSLKPEDTAMYYCAADLGHYRPPCGVLYLGMDYWGKGTQVTVSSGGGSQVQLQESGGGSVQAGGSLRLSCTVSRYTASVNYMGWFRQAPGKEREGVATIFTGAGTTYYANSVKGRFTISRDNAKNTAYLQMNSLKPEDTAIYYCAVDFRGGLLYRPAYEYTYRGQGTQVTVSSASHHHHHH

Abs 630 (25 nM): 0.72 Abs 630
Abs 630 (100 nM): 0.46 Abs 630
B13: IL10R binding molecule of SEQ ID NO: 295 (bispecific antibody)
chain: QVQLQESGGGSVQAGGSLRLSCGASGYTYSSYCMGWFRQVPGKEREGVAVIDSDGSTSYADSVKGRFTISKDNGKNTLYLQMNSLKPEDTAMYYCAADLGHYRPPCGVLYLGMDYWGKGTQVTVSSGGGSQVQLQESGGGSVEAGGSLRLSCAASGYTHSSYCMGWFRQAPGKEREGVAAIDVDGSTTYADSVKGRFTISKDNAKNTLYLQMNSLKPEDTGMYYCAAEFADCSSNYFLPPGAVRYWGQGTQVTVSSASHHHHHH

Abs 630 (25 nM): 1.73 Abs 630
Abs 630 (100 nM): 0.59 Abs 630
B15: IL10R binding molecule of SEQ ID NO: 291 (bispecific antibody)
chain: QVQLQESGGGSVQAGGSLRLSCGASGYTYSSYCMGWFRQVPGKEREGVAVIDSDGSTSYADSVKGRFTISKDNGKNTLYLQMNSLKPEDTAMYYCAADLGHYRPPCGVLYLGMDYWGKGTQVTVSSGGGSQVQLQESGGGSVQAGGSLRLSCAASGYTYSSGCMGWFRQAPGKEREAVAAINSDGSTSYADSVKGRFTISKDNAKNTLYLQMNSLKPEDTAMYYCAAEPYCSGGYPRWSVAEFGYWGQGTQVTVSSASHHHHHH

Source: patent US20250163167A1 (SYNTHEKINE, published 2025)
